Our source for the fraction of control current (fraction of control current) values is patent US20200247885A1.

The target in the assay is murine P2X purinoceptor 4 (Q9JJX6) (mouse) (UniProt Q9JJX6). The assay can be described thus: cell-based or functional assay.
Sequence of UniProt Q9JJX6 (Q9JJX6 whole entry, form in doubt): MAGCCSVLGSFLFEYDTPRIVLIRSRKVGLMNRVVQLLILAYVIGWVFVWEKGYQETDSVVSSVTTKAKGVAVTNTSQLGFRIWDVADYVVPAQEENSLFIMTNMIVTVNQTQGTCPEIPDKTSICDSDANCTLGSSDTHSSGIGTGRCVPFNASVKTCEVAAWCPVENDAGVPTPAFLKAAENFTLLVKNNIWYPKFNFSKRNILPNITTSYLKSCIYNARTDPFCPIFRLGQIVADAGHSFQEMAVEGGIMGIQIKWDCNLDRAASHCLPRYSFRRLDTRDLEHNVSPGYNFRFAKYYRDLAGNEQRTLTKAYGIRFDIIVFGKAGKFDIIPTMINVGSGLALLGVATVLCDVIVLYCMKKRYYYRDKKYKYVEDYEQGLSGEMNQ

Substance hIgG1 NIP 228 TM (antibody) yielded a fraction of control current (fraction of control current) of 1.08.
